Bridges are numbered along the chain shown (N, C = ends). Where no end group is shown, it is not given here. [ ]: non-standard residue; d: D form. The star is where a group is joined. C4 = C-terminal cap: phenethyl group with a meta isopentyloxy group, CC(C)CCOc1cccc(CCN*)c1; NMeR = CN[C@@H](CCCNC(=N)N)C(=O)O; PhAc = O=C(Cc1ccccc1)*
B1: SEQ ID NO: 63 (TRHVNI) with N-Cap N2 and C-Cap C4 (peptide)
peptide: PhAc-TRHVNI-C4
SMILES: CC[C@H](C)[C@H](NC(=O)[C@H](CC(N)=O)NC(=O)[C@@H](NC(=O)[C@H](Cc1c[nH]cn1)NC(=O)[C@H](CCCNC(=N)N)NC(=O)[C@@H](NC(=O)Cc1ccccc1)[C@@H](C)O)C(C)C)C(=O)NCCc1cccc(OCCC(C)C)c1

Assays:
[1] = target: T1, B-Raf kinase (UniProt P15056 448-723, limits assumed); assay: binding affinity, Table 3 (method not given; the Methods describe fluorescence titration)
[2] = target: T1, B-Raf kinase; assay: intrinsic tryptophan fluorescence (ITF), column head 'Kd (ITF) (µM)'
Protocol: Fluorescence intensity was measured with a Hitachi F-2500 Fluorescence Spectrophotometer. A 1.6 mL of protein solution (0.5 μM) was placed in a cuvette and equilibrated at 15° C. for 1 hour. After equilibration, small increments (2-15 μL) of the ligand solution were injected in the cuvette. The experiments were performed in 20 mM HEPES buffer (pH 7.5), 10 mM MgCl2, 30 mM NaCl. […] The slits were set at 10 and 10 nm in the excitation and emission respectively. To determine dilution effect of B-Raf (due to ligand addition) and any fluorescence effect by unbound ligand, a blank sample containing Trp with the same fluorescence signal was titrated with ligand additions as described above. The sample absorbance was kept below 0.1 to minimize the inner filter effect.

[3] = target: T1, B-Raf kinase; assay: direct binding affinity (Kd; values in FIG. 14)

T1 sequence (P15056 448-723 limits assumed): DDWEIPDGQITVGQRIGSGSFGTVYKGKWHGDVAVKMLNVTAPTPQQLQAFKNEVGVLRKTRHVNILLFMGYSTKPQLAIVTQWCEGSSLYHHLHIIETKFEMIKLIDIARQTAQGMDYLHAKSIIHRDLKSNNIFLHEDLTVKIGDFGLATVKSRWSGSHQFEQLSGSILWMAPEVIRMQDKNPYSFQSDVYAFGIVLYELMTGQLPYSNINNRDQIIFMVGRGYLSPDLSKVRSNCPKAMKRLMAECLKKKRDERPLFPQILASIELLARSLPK

Row | Binder | Kd [1] | Kd [2] | fold increase in direct binding affinity compared to SEQ ID NO: 1 [3]
1 | KRHVAE (lactam 1-6) [SEQ ID NO: 48 (KRHVAE)] | 300 nM | – | –
2 | B1 | – | 280 nM | –
3 | K[NMeR][dA]PAE (also: cyclic, closure not given here) [SEQ ID NO: 64 (K-MeR-a-PAE)] | – | 17 nM | 225 fold

From patent US20220127585A1 (UNIVERSITY OF SOUTH CAROLINA, published 2022)
